Reference: patent US20240150465A1 (Chugai, published 2024)
Each block holds one binder with its values, some of them ahead of it.

Key:
[1] = target: T1, human DLL3 (delta-like protein 3 isoform 1 precursor) expressed on Ba/F3 cells (human, UniProt Q9NYJ7 27-618); test: cell ELISA, B-cell culture supernatants on immobilized hDLL3/BaF_H3 cells
T1 construct: Full-length cDNA stably transfected into mouse Ba/F3 cells; also called human DLL3 expressing Ba/F3
T1 sequence: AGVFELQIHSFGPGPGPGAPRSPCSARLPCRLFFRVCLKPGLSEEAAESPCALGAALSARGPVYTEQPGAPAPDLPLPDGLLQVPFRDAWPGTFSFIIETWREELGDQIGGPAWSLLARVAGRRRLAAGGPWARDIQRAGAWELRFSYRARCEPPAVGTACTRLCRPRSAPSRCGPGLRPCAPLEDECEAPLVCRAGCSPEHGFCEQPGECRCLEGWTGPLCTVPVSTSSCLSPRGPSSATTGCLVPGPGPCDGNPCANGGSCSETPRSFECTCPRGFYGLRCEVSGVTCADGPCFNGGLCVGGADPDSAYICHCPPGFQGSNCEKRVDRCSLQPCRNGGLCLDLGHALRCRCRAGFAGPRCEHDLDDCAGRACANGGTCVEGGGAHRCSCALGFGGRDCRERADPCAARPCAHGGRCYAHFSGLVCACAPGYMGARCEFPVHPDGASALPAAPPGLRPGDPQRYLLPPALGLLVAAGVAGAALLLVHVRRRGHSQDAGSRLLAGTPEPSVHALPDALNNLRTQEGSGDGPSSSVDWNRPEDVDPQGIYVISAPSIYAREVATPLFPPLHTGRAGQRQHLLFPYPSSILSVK
Protocol: ELISA screening was conducted to test specificity of antibodies in B-cell culture supernatants. Human DLL3 expressing Ba/F3 (hDLL3/BaF_H3 established in Example 2, 2.5×10⁴ cells) were immobilized onto a Nunc MaxiSorp 384-well plate (Sigma-Aldrich) which was pre-coated with BSA (Sigma-Aldrich) and SUNBRIGHT (registered trademark) OE-080CS as Biocompatible Anchor for cell Membrane (YUKA SANGYO). Immobilized cells were incubated with 20 microliters (micro L) of B-cell culture supernatants for 1 hour. The supernatants were aspirated and the cells were washed with HEPES buffer (0.02 M HEPES, 5 mM KCl, 4 mM NaHCO₃, 138 mM NaCl, 2 mM CaCl₂, 5 mM Glucose, 0.4 mM KH₂PO₄, 0.34 mM Na₂HPO₄° and 0.1% BSA). After washing, goat anti-rabbit IgG polyclonal antibody HRP conjugate (BETHYL, A120-111P) was added. The cells were further incubated on ice for 1 hour and washed. Then, ABTS Microwell Peroxidase Substrate (Kirkegaard & Perry Laboratories) was added and OD405 was analyzed with […]ax 384 (Molecular Devices).

del0 = target: T2, del0; test: ELISA with the human DLL3 ECD fragment proteins del0 to del6, OD405
T2 construct: also called human DLL3 ECD with Flag-tag on C-terminus
T2 chain: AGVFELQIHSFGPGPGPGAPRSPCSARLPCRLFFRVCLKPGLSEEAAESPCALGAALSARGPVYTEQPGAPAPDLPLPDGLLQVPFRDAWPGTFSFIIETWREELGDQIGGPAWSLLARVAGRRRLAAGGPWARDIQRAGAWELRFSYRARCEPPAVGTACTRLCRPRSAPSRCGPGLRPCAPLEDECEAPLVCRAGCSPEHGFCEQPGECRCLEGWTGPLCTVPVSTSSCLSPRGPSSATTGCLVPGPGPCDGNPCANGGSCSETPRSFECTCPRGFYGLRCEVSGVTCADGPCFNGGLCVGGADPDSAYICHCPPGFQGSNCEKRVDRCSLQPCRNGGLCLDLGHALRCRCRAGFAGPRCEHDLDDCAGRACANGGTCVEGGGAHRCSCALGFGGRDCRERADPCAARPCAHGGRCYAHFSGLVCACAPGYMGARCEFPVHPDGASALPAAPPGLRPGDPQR
Protocol: (§1) Nunc MaxiSorp 384-well plates (Sigma-Aldrich) were coated with each of the human DLL3 ECD fragment proteins del0 to del6, and blocked with 20% Blocking One (NACALAI TESQUE). Blocking buffer was removed and recombinant anti-DLL3 antibodies were incubated with the immobilized proteins for 1 hour at room temperature and washed with HEPES buffer (0.05% Tween20, HEPES). Monoclonal ANTI-FLAG M2-Peroxidase, Clone M2 (Sigma-Aldrich) was then added and incubated for 1 hour at room temperature and washed. Then, ABTS Microwell Peroxidase Substrate (Kirkegaard & Perry Laboratories) was added and OD405 was analyzed with […]ax 384 (Molecular Devices).

recombinant human DLL3 [2] = target: T3, recombinant human DLL3 (human, UniProt Q9NYJ7 27-492); test: Octet binning on SA sensor; Antibody A (biotinylated, loaded first): DL306-SG1; then 20 nM human DLL3, then 80 nM Antibody B
T3 sequence: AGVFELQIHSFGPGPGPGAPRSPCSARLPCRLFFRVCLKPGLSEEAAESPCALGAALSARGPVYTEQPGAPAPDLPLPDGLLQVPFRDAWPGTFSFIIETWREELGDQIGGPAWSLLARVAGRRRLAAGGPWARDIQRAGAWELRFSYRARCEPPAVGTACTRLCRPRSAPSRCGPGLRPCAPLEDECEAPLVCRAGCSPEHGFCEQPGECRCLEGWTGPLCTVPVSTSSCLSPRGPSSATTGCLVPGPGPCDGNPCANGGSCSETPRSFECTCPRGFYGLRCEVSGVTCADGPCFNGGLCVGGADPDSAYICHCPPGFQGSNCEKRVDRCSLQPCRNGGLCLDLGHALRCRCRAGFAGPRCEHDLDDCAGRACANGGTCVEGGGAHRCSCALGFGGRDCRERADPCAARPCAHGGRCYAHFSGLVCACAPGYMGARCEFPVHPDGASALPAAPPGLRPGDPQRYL
Protocol: (§2) Octet (registered trademark) RED384 (Fortebio) was used to perform competitive binding assays by epitope binning for a panel of antibodies. A biotinylated antibody (DL301-SG1, DL306-SG1, DL309-SG1, DL312-SG1, D30316AE02-SG1, and D30841AE05-SG1) at 40 nM was first loaded to a streptavidin (SA) biosensor. Next, the sensor is exposed to 20 nM of human DLL3, followed by exposure to 80 nM of second antibody. The second antibodies are DL301-SG1, DL306-SG1, DL309-SG1, DL312-SG1, D30316AE02-SG1, D30841AE05-SG1, DLL3-14-SG1, DLL3-22-SG1, DLL3-4-SG1 and DLL3-6-SG1. Raw data was processed using ForteBio's Data Analysis Software 7.0 and the antibody pairs were assessed for competitive binding. Additional binding by the second antibody indicates an unoccupied epitope (non-competitor), while no binding indicates epitope blocking (competitor).
(§3) The competition ratio of antibody B to antibody A was calculated using the following equation: Competition Ratio (Antibody B to Antibody A)=[Binding Response (Antibody B-Antigen)]/[Binding Response (Antigen-Antibody A)]

recombinant human DLL3 [3] = target: T3, recombinant human DLL3; test: Octet binning on SA sensor; Antibody A (biotinylated, loaded first): DL312-SG1; then 20 nM human DLL3, then 80 nM Antibody B
Protocol: as §2, §3

recombinant human DLL3 [4] = target: T3, recombinant human DLL3; test: Octet binning on SA sensor; Antibody A (biotinylated, loaded first): D30316AE02-SG1; then 20 nM human DLL3, then 80 nM Antibody B
Protocol: as §2, §3

recombinant human DLL3 [5] = target: T3, recombinant human DLL3; test: Octet binning on SA sensor; Antibody A (biotinylated, loaded first): DL309-SG1; then 20 nM human DLL3, then 80 nM Antibody B
Protocol: as §2, §3

recombinant human DLL3 [6] = target: T3, recombinant human DLL3; test: Octet binning on SA sensor; Antibody A (biotinylated, loaded first): D30841AE05-SG1; then 20 nM human DLL3, then 80 nM Antibody B
Protocol: as §2, §3

recombinant human DLL3 [7] = target: T3, recombinant human DLL3; test: Octet binning on SA sensor; Antibody A (biotinylated, loaded first): DL301-SG1; then 20 nM human DLL3, then 80 nM Antibody B
Protocol: as §2, §3

del6 = target: T4, del6; test: ELISA with the human DLL3 ECD fragment proteins del0 to del6, OD405
T4 construct: also called truncated human DLL3 ECD variant with Flag-tag on C-terminus
T4 chain: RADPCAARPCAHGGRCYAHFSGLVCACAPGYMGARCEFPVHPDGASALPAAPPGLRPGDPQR
Protocol: as §1

del5 = target: T5, del5; test: as above
T5 construct: also called truncated human DLL3 ECD variant with Flag-tag on C-terminus
T5 chain: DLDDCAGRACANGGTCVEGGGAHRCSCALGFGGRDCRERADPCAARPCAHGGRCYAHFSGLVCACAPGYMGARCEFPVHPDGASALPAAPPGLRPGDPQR
Protocol: as §1

B1: DLA0841 (antibody, human IgG1, V domains shown)
VH: QEQLVESGGGLVQPEGSLTLTCTASGFSFSSSYDMCWVRQAPGKGPEWIACIYTGDGSTDYASWAKGRFTVSKASSTTVTLQMTSLAVADTATYFCARNSGYGYFGLWGPGTLVTVSS
VL: QVLTQTPSPVSAAVGGTVTISCQSTESVYGSDWLSWYQQKPGQPPKVLIYQASNLEIGVPSRFKGSGSGTQFTLTISGAQCDDAATYYCQGYYSGYIYAFGGGTEVVVK
notes: Rabbit B-cell clone, screened as B-cell culture supernatant
binding result [1]: binds | binding result (del0): binds

B2: DLL3-14-SG1 (antibody, human IgG1, kappa, V domains shown)
VH: QVQLVQSGAEVKKPGASVKVSCKASGYTFTNYYMHWVRQAPGLGLEWMGIINPSDGSTSYAQKFQGRVTMTRDTSTNTVYMDLSSLRSEDTAVYYCARGGNSAFYSYYDMDVWGQGTTVTVSS
VL: DVVMTQTPLSLPVTLGQPASISCRSSQSLVYRDGNTYLSWFQQRPGQSPRRLIYKVSNWQSGVPDRFSGGGSGTDFTLKISRVEAEDVGVYYCMQGTHWPPTFGQGTKVEIKR
notes: Variable regions of a previously reported anti-DLL3 antibody on SG1/SK1; Used as a second antibody only
competition ratio (Antibody B to Antibody A) (recombinant human DLL3 [2]): 1.4 | competition ratio (Antibody B to Antibody A) (recombinant human DLL3 [3]): 1.5 | competition ratio (Antibody B to Antibody A) (recombinant human DLL3 [4]): 1.4 | competition ratio (Antibody B to Antibody A) (recombinant human DLL3 [5]): 1 | competition ratio (Antibody B to Antibody A) (recombinant human DLL3 [6]): 1.4 | competition ratio (Antibody B to Antibody A) (recombinant human DLL3 [7]): 1.2

B4: D30841AE05-SG1 (antibody, human IgG1, kappa, V domains shown)
VH: QVQLKESGPALVKPTQTLTLTCTFSGFSLSSSYDMGWVRQAPGQGLEWMGTIYTGDYSTDYASWAKGRVTITADESTSTAYMELSSLRSEDTAVYYCARNTGYGYFGLWGQGTLVTVSS
VL: DIQLTQSPSFLSASVGDRVTITCQSTESVYGSDWLSWYQQKPGQPPKLLIYQASNLEIGVPSRFSGSGSGTDFTLTINSLEAEDAATYYCQGYYSGYIYAFGGGTKVEIKR
notes: Humanized variant of DLA0841 with SG1 heavy and SK1 light constant regions; Labelled with NHS-PEG4-Biotin when used as the first (immobilized) antibody in the Octet assay
competition ratio (Antibody B to Antibody A) (recombinant human DLL3 [2]): -0.1 | competition ratio (Antibody B to Antibody A) (recombinant human DLL3 [3]): 1.1 | competition ratio (Antibody B to Antibody A) (recombinant human DLL3 [4]): 1.3 | competition ratio (Antibody B to Antibody A) (recombinant human DLL3 [5]): 0.8 | competition ratio (Antibody B to Antibody A) (recombinant human DLL3 [6]): 0 | competition ratio (Antibody B to Antibody A) (recombinant human DLL3 [7]): 0.9

B5: DLA0316 (antibody, human IgG1, V domains shown)
VH: QEQLVESGGGLVQPGGSLKLSCKVSGFDFSNYGVSWVRQAPGKGLEWIGYIDPAFGRTYYASWVNGRFTISSHNAQNTLYLQLNSLTAADTATYFCVRVALVVAGVAYYGMDVWGPGTLVTVSS
VL: DVVMTQTPASVEAAVGGTVTINCQASQNIYSYLSWYQQKPGQPPKLLIYRTSTLASGVPSRFKGSGSGTQFTLTISDLECADAATYYCQSYYYSSGSSYGAFAFGGGTEVVVK
notes: as for B1
binding result [1]: binds | binding result (del0): binds

B6: DLA0106 (antibody, human IgG1, V domains shown)
VH: QSVEESGGRLVTPGTPLTLTCTVSGIDLSSYAMSWVRQAPGKGLEWIGIISNSGSGFYANWAKGRFTISKTSSTTVDVKISSPTTEDTATYFCARVFDADSSGYYYYGMDPWGPGTLVTVSS
VL: DVVMTQTPSSVSEPVGGTVTIKCQASEDIESYLAWYQQKPGQPPKLLIYAASTLASGVSSRFRGSGSGTEYTLTISDLECADAATYYCQSTYYDSSGVDWAFGGGTEVVVK
notes: as for B1
binding result [1]: binds | binding result (del0): binds | binding result (del6): no binding | binding result (del5): no binding

Second part, the binder after the results:

binding result [1]: binds | binding result (del0): binds
B3: DLA0641 (antibody, human IgG1, V domains shown)
VH: QEQLVESGGGLVQPGASLTLTCKASGFSFNTSYCPCWVRQVPGKGPEWIACIDAGYSGATWYANWAKGRFTISKTSSTTVTLQMTSLTGADTATYFCVRCDAAGSGAFNLWGPGTLVTVSS
VL: AYDMTQTPASVEVPVGGTVTIKCQASQSIYSYLSWYQQKPGQPPKLLIYEASKLTSGVPSRFSGSGSGTEFTLTISGVQCDDAATYYCQQGSGYMDVDNVFGGGTEVVVK
notes: as for B1

binding result [1]: binds | binding result (del0): binds
B7: DLA0769 (antibody, human IgG1, V domains shown)
VH: QEQLVESGGGLVQPEGSLTLTCTASGFSFSSSGYMCWVRQAPGKGLEWIACISGGSSGDTDYANWAKGRFSISKTSSTTVTLQMTSLTVADTATYFCARDVYIDSTIFNFNLWGPGTLVTVSS
VL: QVLTQTPSPVSAAVGGTVTISCQASQSVYNNNNLAWYQQKPGQPPKLLIYAASSLASGVPSRFKGSGAGTQFTLTISDLECDDAATYYCQGTYYSSGWYSTFGGGTEVVVK
notes: as for B1
